In article PMC10952772 (The Febs Journal, 2022):
Read-outs that look alike come from different tables or passages of the source.

T1: Human Scribble (SCRIB) PDZ4 domain (1099-1203) (human, UniProt Q14160 1099-1203)
T1 sequence: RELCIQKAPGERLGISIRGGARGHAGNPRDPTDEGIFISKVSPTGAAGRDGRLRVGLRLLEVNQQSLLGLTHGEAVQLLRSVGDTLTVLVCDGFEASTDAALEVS

T2: Human Scribble (SCRIB) PDZ3 domain (1002-1094) (human, UniProt Q14160 1002-1094)
T2 sequence: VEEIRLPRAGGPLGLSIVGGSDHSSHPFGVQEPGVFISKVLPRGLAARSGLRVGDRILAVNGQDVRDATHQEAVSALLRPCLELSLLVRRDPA

B1: Human Scribble (SCRIB) PDZ2 domain (860-950) (domain or fragment)
chain: RHVACLARSERGLGFSIAGGKGSTPYRAGDAGIFVSRIAEGGAAHRAGTLQVGDRVLSINGVDVTEARHDHAVSLLTAASPTIALLLEREA

Experiments:
PDZ = conditions: phosphorylated at the −2 position; ref [51], [52]; cited from earlier work
[1] = target: T1, Human Scribble (SCRIB) PDZ4 domain …; assay: ITC
[2] = target: B1; assay: ITC
[3] = target: T2, Human Scribble (SCRIB) PDZ3 domain …; assay: ITC
[4] = target: T3, Human Scribble (SCRIB) PDZ1 domain (728-815) (human, UniProt Q14160 728-815); assay: ITC
T3 sequence (Q14160 728-815): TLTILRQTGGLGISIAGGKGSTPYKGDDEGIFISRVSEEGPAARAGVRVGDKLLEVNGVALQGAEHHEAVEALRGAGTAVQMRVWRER

[5] = target: T1, Human Scribble (SCRIB) PDZ4 domain …; assay: ITC; remark: listed apart in the source
[6] = target: B1; assay: ITC; remark: listed apart in the source
[7] = target: T2, Human Scribble (SCRIB) PDZ3 domain …; assay: ITC; remark: listed apart in the source
[8] = target: T3, Human Scribble (SCRIB) PDZ1 domain …; assay: ITC; remark: listed apart in the source
AUC = target: the molecule itself; assay: AUC

Molecule: HTLV‐1 Tax1: oncogenic Tax1 protein of HTLV‐1
- effect of phosphorylation at the −2 position of PBM on PDZ recognition (PDZ): phosphorylation inhibiting PDZ recognition

Molecule: KHFRETEV [HTLV-1 Tax1 PBM peptide (KHFRETEV, residues 346-353)]
- Kd [1]: 40.2 µM
- dH [1]: -2.17 kcal/mol
- stoichiometry N [1]: 1
- Kd [2]: 15.4 µM
- dH [2]: -4.08 kcal/mol
- stoichiometry N [2]: 1.1
- Kd [3]: 9.1 µM
- dH [3]: -13.3 kcal/mol
- stoichiometry N [3]: 0.9
- Kd [4]: 7.8 µM
- dH [4]: -4.21 kcal/mol
- stoichiometry N [4]: 1.1

Molecule: RSWFETWV [Superpeptide (RSWFETWV)]
- Kd [5]: 12.6 µM
- dH [5]: -2.9 kcal/mol
- stoichiometry N [5]: 1.1
- Kd [6]: 2.2 µM
- dH [6]: -7.04 kcal/mol
- stoichiometry N [6]: 1
- Kd [7]: 1.6 µM
- dH [7]: -11.3 kcal/mol
- stoichiometry N [7]: 0.9
- Kd [8]: 0.6 µM
- dH [8]: -3.72 kcal/mol
- stoichiometry N [8]: 0.9

Molecule: B1
- stoichiometry N (AUC): 2
